Measured values from patent publication US20150118260A1 (GENERAL HOSPITAL, published 2015).

T1: human CD80 on the human CD80-expressing leukemia cell line THP-1 (human, UniProt P33681 35-288)
T1 construct: whole, on cells
T1 sequence (looked up): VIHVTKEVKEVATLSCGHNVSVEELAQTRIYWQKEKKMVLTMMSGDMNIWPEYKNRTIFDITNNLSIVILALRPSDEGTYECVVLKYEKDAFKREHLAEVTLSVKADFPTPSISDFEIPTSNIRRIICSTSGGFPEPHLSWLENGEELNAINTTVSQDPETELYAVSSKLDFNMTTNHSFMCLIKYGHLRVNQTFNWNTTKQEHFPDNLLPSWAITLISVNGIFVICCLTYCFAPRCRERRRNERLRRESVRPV


Key:
[1] = target: T1, human CD80 on the human CD80-expressing …; experiment: flow cytometry with biotinylated soluble porcine CTLA-4 on THP-1 cells
[2] = target: T2, porcine CD80 on the porcine CD80-expressing B-cell lymphoma cell line LCL13271-5E4 (porcine); experiment: flow cytometry on LCL13271-5E4 cells, MFI against concentration of biotinylated protein, non-linear least-squares fit
T2 construct: whole, on cells; The cell line was picked as CD80-expressing by staining with hamster anti-mouse CD80 mAb 16-10A1; CD86 on these cells is not addressed; also called LC13271-5E4

Binder | binding result [1] | Kd [2] [µM]
glycosylated soluble porcine CTLA-4 carrying 6xHis tag in the C-terminus (aa 38-161, 124 aa + 6xHis) (receptor, N-glycosylated completely or partially (Pichia pastoris); labeled with Sulfo-NHS biotin in the direct binding and KD assays, non-biotinylated in the blocking assay, Expressed in Pichia pastoris X33; The entry includes the 6xHis tag; also called pCTLA-4-Gly; pCTLA4-6xHis) MHVAQPAVVLANSRGVASFVCEYGSAGKAAEVRVTVLRRAGSQMTEVCAATYTVEDELTFLDDSTCTGTSTENKVNLTIQGLRAVDTGLYICKVELLYPPPYYVGMGNGTQIYVIDPEPCPDSDHHHHHH | no binding | 0.013
non-N-glycosylated soluble porcine CTLA-4 carrying 6xHis tag (aa 38-161, 124 aa + 6xHis; N76A, N108A) (receptor, labeled with Sulfo-NHS biotin in the direct binding and KD assays, non-biotinylated in the blocking assay, also called pCTLA-4-Non-N-Gly; non-N-glycosylated porcine soluble CTLA-4) MHVAQPAVVLANSRGVASFVCEYGSAGKAAEVRVTVLRRAGSQMTEVCAATYTVEDELTFLDDSTCTGTSTENKVALTIQGLRAVDTGLYICKVELLYPPPYYVGMGAGTQIYVIDPEPCPDSDHHHHHH | no binding | 0.013
